Patent US20250270341A1 (Alector, published 2025)

T1: Cyno CD98hc ECD Avi-His (cynomolgus macaque, UniProt P08195 105-529 (human entry))
T1 construct: biotinylated on the Avi tag where captured on streptavidin; also called Cyno CD98-AVI-His; Cyno CD98hc-AVI-His
T1 chain: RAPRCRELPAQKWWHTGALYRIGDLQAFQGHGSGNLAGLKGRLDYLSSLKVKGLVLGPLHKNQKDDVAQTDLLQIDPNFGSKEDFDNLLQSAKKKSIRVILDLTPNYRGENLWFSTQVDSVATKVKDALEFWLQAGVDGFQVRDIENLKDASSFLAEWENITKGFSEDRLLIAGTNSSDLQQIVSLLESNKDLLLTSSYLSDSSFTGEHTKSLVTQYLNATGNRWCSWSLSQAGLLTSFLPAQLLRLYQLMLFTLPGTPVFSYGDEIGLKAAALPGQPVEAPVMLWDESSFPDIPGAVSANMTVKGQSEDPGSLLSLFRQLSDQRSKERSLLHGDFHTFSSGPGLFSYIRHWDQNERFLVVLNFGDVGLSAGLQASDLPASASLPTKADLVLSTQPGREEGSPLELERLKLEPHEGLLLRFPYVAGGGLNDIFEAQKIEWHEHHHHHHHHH

T2: huCD98hc ECD Avi-His (human, UniProt P08195 105-529)
T2 construct: biotinylated on the Avi tag where captured on streptavidin; also called Human CD98-AVI-His; Human CD98hc-AVI-His
T2 sequence: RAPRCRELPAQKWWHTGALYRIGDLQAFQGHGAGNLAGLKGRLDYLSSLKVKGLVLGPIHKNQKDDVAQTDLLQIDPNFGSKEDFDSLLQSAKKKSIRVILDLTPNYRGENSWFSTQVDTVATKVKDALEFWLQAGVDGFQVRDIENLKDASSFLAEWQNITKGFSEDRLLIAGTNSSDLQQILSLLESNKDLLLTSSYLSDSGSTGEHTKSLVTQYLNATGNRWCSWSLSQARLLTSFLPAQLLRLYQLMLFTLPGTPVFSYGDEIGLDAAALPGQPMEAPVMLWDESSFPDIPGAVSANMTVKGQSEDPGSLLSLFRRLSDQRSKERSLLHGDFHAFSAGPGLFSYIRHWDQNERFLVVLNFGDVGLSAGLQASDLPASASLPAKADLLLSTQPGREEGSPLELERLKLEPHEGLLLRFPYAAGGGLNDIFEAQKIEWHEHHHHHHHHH

T3: human CD98hc endogenously expressed on HCMEC/D3 cells (human)
T3 construct: human brain endothelial cell line
T3 chain: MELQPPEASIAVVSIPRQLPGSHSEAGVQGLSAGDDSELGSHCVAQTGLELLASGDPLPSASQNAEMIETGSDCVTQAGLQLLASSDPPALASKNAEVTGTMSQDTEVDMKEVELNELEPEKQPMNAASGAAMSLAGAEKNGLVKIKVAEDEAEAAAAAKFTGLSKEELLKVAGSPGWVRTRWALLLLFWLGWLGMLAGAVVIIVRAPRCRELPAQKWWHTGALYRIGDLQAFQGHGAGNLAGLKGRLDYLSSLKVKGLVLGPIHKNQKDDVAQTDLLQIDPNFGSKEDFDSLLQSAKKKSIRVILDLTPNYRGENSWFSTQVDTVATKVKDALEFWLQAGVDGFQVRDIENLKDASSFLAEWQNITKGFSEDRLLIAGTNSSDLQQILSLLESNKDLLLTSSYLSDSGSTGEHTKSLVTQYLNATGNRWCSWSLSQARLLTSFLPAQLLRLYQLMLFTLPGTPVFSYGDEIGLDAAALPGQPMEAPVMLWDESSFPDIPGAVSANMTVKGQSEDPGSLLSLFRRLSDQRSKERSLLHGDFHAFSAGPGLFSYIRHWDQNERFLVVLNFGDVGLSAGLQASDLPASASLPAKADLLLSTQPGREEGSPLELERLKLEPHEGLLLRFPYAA

T4: Full length human CD98hc on CHO cells (human)
T4 construct: CHO cells stably overexpressing it; also called CHO-human CD98hc; CHO-huCD98hc
T4 chain: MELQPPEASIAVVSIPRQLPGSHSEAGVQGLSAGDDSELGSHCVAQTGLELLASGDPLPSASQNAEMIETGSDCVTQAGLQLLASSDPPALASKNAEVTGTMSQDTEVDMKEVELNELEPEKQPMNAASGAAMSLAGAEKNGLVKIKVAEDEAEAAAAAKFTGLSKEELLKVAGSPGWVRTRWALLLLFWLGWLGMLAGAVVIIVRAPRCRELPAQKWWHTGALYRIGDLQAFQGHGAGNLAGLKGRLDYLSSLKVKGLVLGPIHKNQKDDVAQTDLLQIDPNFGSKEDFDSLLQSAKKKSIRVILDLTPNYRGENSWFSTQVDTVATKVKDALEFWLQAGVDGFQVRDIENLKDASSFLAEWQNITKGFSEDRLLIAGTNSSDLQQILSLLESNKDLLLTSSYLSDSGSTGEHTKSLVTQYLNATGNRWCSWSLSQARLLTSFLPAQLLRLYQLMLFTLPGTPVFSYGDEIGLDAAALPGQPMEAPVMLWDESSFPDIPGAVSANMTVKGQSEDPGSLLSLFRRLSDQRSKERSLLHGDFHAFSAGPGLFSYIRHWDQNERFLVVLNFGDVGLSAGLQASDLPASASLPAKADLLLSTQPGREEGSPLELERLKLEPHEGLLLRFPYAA

T5: Full length mouse CD98hc on CHO cells (mouse, UniProt P10852 1-526)
T5 construct: CHO cells stably overexpressing it; also called CHO-mouse CD98hc; CHO-mCD98hc
T5 sequence: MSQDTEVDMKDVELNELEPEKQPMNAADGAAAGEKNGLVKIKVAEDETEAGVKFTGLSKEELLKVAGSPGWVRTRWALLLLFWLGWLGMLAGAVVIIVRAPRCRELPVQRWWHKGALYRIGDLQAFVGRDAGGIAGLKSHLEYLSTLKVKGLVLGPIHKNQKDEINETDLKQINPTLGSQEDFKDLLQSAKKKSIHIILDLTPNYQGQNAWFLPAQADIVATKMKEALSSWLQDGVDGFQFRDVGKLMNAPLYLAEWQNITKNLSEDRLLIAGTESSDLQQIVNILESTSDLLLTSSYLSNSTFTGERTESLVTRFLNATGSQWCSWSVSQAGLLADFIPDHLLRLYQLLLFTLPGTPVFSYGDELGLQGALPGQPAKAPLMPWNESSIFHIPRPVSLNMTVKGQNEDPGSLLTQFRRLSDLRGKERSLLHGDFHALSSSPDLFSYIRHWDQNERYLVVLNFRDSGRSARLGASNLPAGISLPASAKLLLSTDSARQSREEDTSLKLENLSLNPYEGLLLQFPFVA


Experiments:
Cyno CD98hc ECD Avi-His = molecular target: T1, Cyno CD98hc ECD Avi-His; assay: SPR, Biacore T200, anti-kappa capture
Procedure: (§1) Binding kinetics of 2+1 anti-CD98hc bispecific antibodies to recombinant human and cynomolgus CD98hc ECD Avi-His were evaluated using a Biacore T200 instrument (Global Life Sciences Solutions USA LLC, Marlborough, MA). The 2+1 anti-CD98hc bispecific antibodies were prepared by diluting to 50 μg/mL in running buffer HBS-EP+ (Teknova) with 0.5 mg/mL BSA (MP Biomedicals) and captured by a goat anti-human kappa polyclonal antibody (Southern Biotech) surface that was prepared according to the instrument manufacturer's recommendations. Two independent experiments were performed as follows, resulting in an N of between one and […] determinations for each antibody. Estimates of affinity were generated by injecting each analyte over captured antibody on Flowcell 2, 3, or 4. CD98hc ECD Avi-His analytes were diluted with running buffer, in a series of five, three-fold serial dilutions starting from 600 nM. Analytes were injected without regeneration, from lowest to highest concentration, for 5 minutes each, and dissociation was followed for 15 minutes. After each analyte injection series, antibodies were regenerated with 10 mM glycine pH 2.0 buffer (Cytiva). Data were processed and analyzed using Biacore T200 BiaEvaluation software (Cytiva).
(§2) The equilibrium dissociation constants (KD) were calculated from the fitted association and dissociation rate constants (k-on and k-off) for 2+1 anti-CD98hc bispecific antibodies of the present disclosure binding to human and cynomolgus CD98hc ECD Avi-His. For measurements with N>1, means and standard deviation were calculated and measurements for all samples were combined and graphed using GraphPad Prism.

huCD98hc ECD Avi-His = molecular target: T2, huCD98hc ECD Avi-His; assay: SPR, Biacore T200, anti-kappa capture
Procedure: as §1, §2

[1] = molecular target: T3, human CD98hc endogenously expressed on …; assay: FACS, hybridoma supernatant
[2] = molecular target: T4, Full length human CD98hc on CHO cells; assay: FACS, hybridoma supernatant
[3] = molecular target: T5, Full length mouse CD98hc on CHO cells; assay: FACS, hybridoma supernatant
[4] = molecular target: T5, Full length mouse CD98hc on CHO cells; assay: FACS, hybridoma supernatant; remark: listed apart in the source
Description: The IgG positive hybridoma supernatants (898 in total) were initially screened for their ability to differentially bind CHO cells overexpressing human or mouse CD98hc cells compared to CHO parental cells by FACS. Overexpressing cells were harvested, washed, and labeled with various concentrations and combinations of CellTrace cell proliferation dyes CFSE and Violet (ThermoFisher, Cat #C34554 and Cat #34557, respectively) to create uniquely barcoded cell populations. Barcoded cells (5×10⁴ of each cell population) were aliquoted into 96-well U-bottom plates and incubated with 50 μl of hybridoma cell culture supernatant or 1 μg/ml of commercially available purified mouse anti-human CD98hc monoclonal antibody (Sigma Aldrich, Cat #SAB 4700503) and rat anti-mouse CD98hc antibody (Bio-Rad Laboratories, Hercules, CA, Cat #MCA2684) on ice for 30 minutes. […] Following this secondary antibody incubation, the cells were again washed twice with ice-cold FACS buffer and resuspended in a final volume of 50 μl of FACS buffer containing 0.25 μl/well propidium iodide (BD Biosciences, Cat #556463). Binding intensity on cells was analyzed using the FACS Canto system (BD Biosciences), with sorting gates drawn to exclude dead (i.e., propidium iodide-positive) cells. For each barcoded cell population, the ratio of APC Mean Fluorescence Intensity (MFI) divided by secondary antibody MFI was calculated for each anti-CD98hc hybridoma supernatant tested and reported in Table 5.

Kd (Cyno CD98hc ECD Avi-His)	Kd (huCD98hc ECD Avi-His)	MFI ratio over secondary antibody [1]	MFI ratio over secondary antibody [2]	MFI ratio over secondary antibody [3]	binding result [4]	Binder
880 nM	31 nM	–	–	–	–	CD98hc.04.064.1a (humanized, 2+1 format) (bispecific antibody, tested as 2+1 bispecific (scFv on an IgG)) scFv: QVQLVQSGAEVKKPGASVKVSCKASGYTFTSYWMNWVRQAPGQGLEWMGIIDPSDSETHYAQKFQGRVTMTVDKSTSTVYMELSSLRSEDTAVYYCARASYGKGYFDYWGQGTLVTVSSGGSEGKSSGSGSESKSTGGSDIVMTQSPDSLAVSLGERATINCKSSQSLLNNINQKNYLAWYQQKPGQPPKLLIYFASTRESGVPDRFSGSGSGTDFTLTISSLQAEDVAVYYCQQHYSSPFTFGGGTKVEIK
–	–	218	52	1.2	no binding	CD98HC.04.054 (antibody, V domains shown, hybridoma IgG) VH: QVQLQQSAAELARPGASVKMSCETSGYTFTRYTMNWVKQRPGQGLDWIGYINPSSGYAEYNQKFRGKTTLTADKSSSTAYIQLNSLTSEDSAVYYCVRYDGNYVYWGQGTTLTVSS VL: DIVMTQSQKFMSTSFGDRVDITCKASQNVGSAVAWYQQKPGQSPKLLIYSASNRYTGVPDRFTGSGSGTDFTLTINNMQSADLADYFCQQYNFYPLTFGAGTKLDLK
